These results are taken from PMC12292835, “Amylin Receptor 1 Mutagenesis Revealed a Potential Role of Calcitonin Serine 29 in Receptor Interaction” (Biomedicines, 2025).

The labels stand for the following.
B1: amylin receptor 1 extracellular domain, wild type (hRAMP1.24–111-(GSA)3-hCTR.34–141-H6) (receptor)
chain: TTACQEANYGALLRELCLTQFQVDMEAVGETLWCDWGRTIRSYRELADCTWHMAEKLGCFWPNAEVDRFFLAVHGRYFRSCPISGRAVGSAGSAGSAIEPKPFLYVVGRKKMMDAQYKCYDRMQQLPAYQGEGPYCNRTWDGWLCWDDTPAGVLSYQFCPDYFPDFDPSEKVTKYCDEKGVWFKHPENNRTWSNYTMCNAFTPEK
modifications: N-glycosylated (sites not given)
B2: amylin receptor 1 extracellular domain with calcitonin receptor E123D (hRAMP1.24–111-(GSA)3-hCTR.34–141.E123D-H6) (receptor)
chain: B1 chain with E187D
modifications: N-glycosylated (sites not given)
B3: amylin receptor 1 extracellular domain with calcitonin receptor D97E (hRAMP1.24–111-(GSA)3-hCTR.34–141.D97E-H6) (receptor)
chain: B1 chain with D161E
modifications: N-glycosylated (sites not given)
B4: amylin receptor 1 extracellular domain with calcitonin receptor E123A (hRAMP1.24–111-(GSA)3-hCTR.34–141.E123A-H6) (receptor)
chain: B1 chain with E187A
modifications: N-glycosylated (sites not given)
B5: amylin receptor 1 extracellular domain with calcitonin receptor N124D (hRAMP1.24–111-(GSA)3-hCTR.34–141.N124D-H6) (receptor)
chain: B1 chain with N188D
modifications: N-glycosylated (sites not given)
B6: amylin receptor 1 extracellular domain with calcitonin receptor D97A (hRAMP1.24–111-(GSA)3-hCTR.34–141.D97A-H6) (receptor)
chain: B1 chain with D161A
modifications: N-glycosylated (sites not given)
B7: amylin receptor 1 extracellular domain with calcitonin receptor N124A (hRAMP1.24–111-(GSA)3-hCTR.34–141.N124A-H6) (receptor)
chain: B1 chain with N188A
modifications: N-glycosylated (sites not given)

Numbering of substitutions follows the chain as printed. Names and notes keep the numbering of the source. Where only a bound is given, the exact number is not on record here.

One test concerns the target T1, FITC-labeled AC413(6–25) with Y25P mutation (fluorescein isothiocyanate (FITC) on the N-terminus).
T1 construct: AC413, an antagonist amylin analog, residues 6-25 (20 amino acids) with Y25P; also called FITC-AC413(6–25) Y25P; AC413(6–25) Y25P; source: synthetic peptide (custom-synthesized, Genscript, HPLC-purified)
The test can be described thus: fluorescence polarisation; saturation binding format; 10 nM FITC-labeled peptide probe, purified receptor ECD at rising concentrations; 1 h at room temperature; anisotropy; mean pKD of at least three independent experiments. The following applies: both partners purified.
By Kd is commonly meant a measure of binding affinity in units of concentration. In general, pKD refers to the negative decadic logarithm of the KD, by convention in mol/L. B1 yielded a Kd of 57 nM and a pKD of 7.24.
The molecule B2 came in with a Kd of 136 nM and a pKD of 6.87.
With B3, the affinity, expressed as Kd, was 81 nM and the pKD turned out to be 7.09.
In the case of B4, binding was put at a Kd of 129 nM and the pKD was determined as 6.89.
The molecule B5 showed a Kd of 822 nM and a negative logarithm of the KD (pKD) of 6.09.
Taken in the same sequence, the figures for B6 were 62 nM and 7.21.
B7 came in with a Kd of 467 nM and a pKD of 6.33.

The next test deals with T2, FITC-labeled salmon calcitonin (sCT) fragment(22–32) (salmon, fluorescein isothiocyanate (FITC) label, position not stated).
T2 construct: salmon calcitonin, residues 22-32 (11 amino acids); numbers count on: the mature 32-residue hormone; probably FITC at the N-terminus and a C-terminal amide, neither stated for this peptide; also called FITC-sCT(22–32); sCT(22–32); source: synthetic peptide (custom-synthesized, Genscript, HPLC-purified)
Described as above. The following applies: both partners purified.
As for B1, the Kd came out at 81 nM and the pKD was 7.09.
For the molecule B2, the Kd was found to be 53 nM and the pKD is 7.28.
B3: the Kd came to 161 nM and the pKD came out at 6.79.
Turning to B4, the Kd stood at 365 nM and the pKD was determined as 6.44.
For the molecule B5, the Kd was 52 nM and the pKD came out at 7.29.
In the case of B6, the Kd was determined as 548 nM and the pKD turned out to be 6.26.

Another test addresses T2, FITC-labeled salmon calcitonin (sCT) …. The test is described as above. The following applies: both partners purified. The source holds these as a separate data set.
For the molecule B7, the “fold decrease of affinity against the wild type” value was over 10 fold.
